Our source for the Km and kcat values is paper PMC12093947, “Cobalt modulates methanol turnover of the alcohol dehydrogenase in Desulfofundulus kuznetsovii strain TPOSR” (Applied and Environmental Microbiology, 2025).

The series relates to NC(=O)c1ccc[n+]([C@@H]2O[C@H](COP(=O)(O)OP(=O)(O)OC[C@H]3O[C@@H](n4cnc5c(N)ncnc54)[C@H](O)[C@@H]3O)[C@@H](O)[C@H]2O)c1. The series is described as follows: purified protein. The following applies: without added Co, methanol 0.75-3000 mM, 50 mM Bis-tris propane, 55 °C, rapid-equilibrium, NAD+ binds first, brackets 95% confidence interval, varied: cofactor.

By kcat is commonly meant the number of substrate molecules converted per active site and unit of time at saturation. As to “TPOSR Adh1 (Desulfofundulus kuznetsovii)”, the Km was 0.550 [0.26, 1.3] mM and the kcat is 1.76 s⁻¹.
